In test [1] the target is T1, GnRH receptor of rat pituitary membranes (rat) (UniProt P30969).
T1 sequence (looked up): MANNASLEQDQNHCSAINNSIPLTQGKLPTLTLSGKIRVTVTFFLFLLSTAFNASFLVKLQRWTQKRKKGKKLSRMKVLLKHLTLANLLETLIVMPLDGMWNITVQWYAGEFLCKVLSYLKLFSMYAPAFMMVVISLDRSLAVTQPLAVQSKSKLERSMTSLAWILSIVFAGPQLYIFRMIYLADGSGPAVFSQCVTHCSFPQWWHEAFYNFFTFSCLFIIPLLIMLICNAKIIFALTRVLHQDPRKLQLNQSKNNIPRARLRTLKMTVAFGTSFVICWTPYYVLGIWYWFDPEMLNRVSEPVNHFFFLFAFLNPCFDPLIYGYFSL
In words: radioligand displacement on rat pituitary membranes, equimolar concentrations.

Test [2] addresses LH receptors on bovine granulosa cells and bovine small luteal cells (bovine) (UniProt Q28005). Put plainly: cell-based or functional assay.
Sequence of UniProt Q28005 (Q28005 27-701): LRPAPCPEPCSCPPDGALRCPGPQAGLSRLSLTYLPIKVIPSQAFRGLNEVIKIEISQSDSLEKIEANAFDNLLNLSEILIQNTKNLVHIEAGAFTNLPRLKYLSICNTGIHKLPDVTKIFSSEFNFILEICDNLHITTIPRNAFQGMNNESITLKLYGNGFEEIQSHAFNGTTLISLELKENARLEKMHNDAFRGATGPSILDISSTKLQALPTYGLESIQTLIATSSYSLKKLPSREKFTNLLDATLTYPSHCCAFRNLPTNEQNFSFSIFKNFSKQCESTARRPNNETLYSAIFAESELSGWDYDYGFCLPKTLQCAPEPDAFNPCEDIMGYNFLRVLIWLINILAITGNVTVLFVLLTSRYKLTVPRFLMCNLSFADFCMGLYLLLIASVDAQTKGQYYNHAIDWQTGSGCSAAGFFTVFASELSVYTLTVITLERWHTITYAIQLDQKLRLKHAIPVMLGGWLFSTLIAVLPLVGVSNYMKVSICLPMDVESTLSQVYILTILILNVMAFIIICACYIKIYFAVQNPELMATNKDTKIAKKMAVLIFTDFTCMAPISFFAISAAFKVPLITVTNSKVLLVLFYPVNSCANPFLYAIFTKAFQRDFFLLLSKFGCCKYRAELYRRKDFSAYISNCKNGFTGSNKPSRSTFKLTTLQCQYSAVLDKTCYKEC

In turn, D-Lys6GnRH (peptide) registered a cpm displaced relative to native GnRH in test [1] of 187%. Substance hecate-bLH conjugate (peptide) came in with a cell killing of bovine small luteal cells after 22 hr (Trypan Blue exclusion) (fold vs hecate alone) in test [2] of 2.
